Measured values from publication PMC6862464, “Structural Insights into AQP2 Targeting to Multivesicular Bodies” (International Journal of Molecular Sciences, 2019).
Substitutions are numbered along the chain they refer to.

Key:
[1] = biological target: T1, full-length human LIP5 L67A (human, UniProt Q9NP79 1-307, L67A); experiment: other fluorescence titration; Alexa 488-labeled, dephosphorylated AQP2 (around 1 uM) in the cuvette, titrated with unlabeled LIP5; total fluorescence; 20 mM Tris-HCl pH 8, 300 mM NaCl, 0.2% OGNG; triplicate titrations; settings: both partners purified
T1 construct: LIP5, human, full length, point mutant; spacer before the TEV site and His tag, as in m2; Mutant of m2; dimer as said of full-length LIP5 (cited); source: E. coli BL21*(DE3), purified (HisTrap, SEC)
T1 sequence: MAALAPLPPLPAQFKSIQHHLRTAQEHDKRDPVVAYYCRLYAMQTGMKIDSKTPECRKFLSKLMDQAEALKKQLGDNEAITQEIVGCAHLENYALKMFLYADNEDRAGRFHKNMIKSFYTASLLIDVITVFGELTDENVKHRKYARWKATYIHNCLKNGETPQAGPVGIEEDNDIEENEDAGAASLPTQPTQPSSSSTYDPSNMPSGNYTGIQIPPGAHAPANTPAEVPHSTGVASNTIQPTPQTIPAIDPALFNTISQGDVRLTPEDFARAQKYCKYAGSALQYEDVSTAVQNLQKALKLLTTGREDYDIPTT

[2] = biological target: T2, full-length human LIP5 E68A (human, UniProt Q9NP79 1-307, E68A); experiment: as above; settings: both partners purified
T2 construct: LIP5, human, full length, point mutant; spacer before the TEV site and His tag, as in m2; Mutant of m2; dimer as said of full-length LIP5 (cited); source: E. coli BL21*(DE3), purified (HisTrap, SEC)
T2 sequence: T1 sequence with A67L, E68A

B1: human aquaporin 2 (AQP2), wild-type (natural protein, UniProt P41181 1-271, looked up)
chain: MWELRSIAFSRAVFAEFLATLLFVFFGLGSALNWPQALPSVLQIAMAFGLGIGTLVQALGHISGAHINPAVTVACLVGCHVSVLRAAFYVAAQLLGAVAGAALLHEITPADIRGDLAVNALSNSTTAGQAVTVELFLTLQLVLCIFASTDERRGENPGTPALSIGFSVALGHLLGIHYTGCSMNPARSLAPAVVTGKFDDHWVFWIGPLVGAILGSLLYNYVLFPPAKSLSERLAVLKGLEPDTDWEEREVRRRQSVELHSPQSLPRGTKA
modifications: cysteine residues labeled with C5 maleimide Alexa 488; dephosphorylated with alkaline phosphatase before labeling
notes: concentrations and molar ratios seem to count monomers; His-tag is called uncleavable; also called WT; labeled AQP2; source: Pichia pastoris, purified (HisTrap, SEC) in OGNG; not shown: His-tag, N-terminal, kept
[1]
  Kd: 0.298 µM
[2]
  Kd: 0.243 µM
